Test results as given in article PMC7354924.
Values belong to the substance of their own block, whether it stands above or below them.

Legend:
[1] = target: growth differentiation factor 5 (GDF5), wild type (UniProt P43026)
Target sequence in this assay (P43026 382-501): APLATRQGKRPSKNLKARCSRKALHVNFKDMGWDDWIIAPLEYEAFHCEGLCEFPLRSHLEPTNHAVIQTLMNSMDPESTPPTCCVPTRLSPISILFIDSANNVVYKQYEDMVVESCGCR

[2] = target: bone morphogenetic protein 2 (BMP2) (UniProt P12643); assay: SPR
[3] = target: growth differentiation factor 5 (GDF5), wild type (UniProt P43026); assay: SPR; BMPR1A with BMP2, GDF5 and GDF5 variants; set-up not told for this pair in the main text (values in the discussion, SI Appendix Table S1); taken as the ProteOn set-up with immobilized ligands
Target sequence in this assay (P43026 382-501): as above

[4] = target: growth differentiation factor 5 (GDF5), wild type (UniProt P43026); assay: SPR; ProteOn XPR36, 25 °C; BMP/TGF-β ligands immobilized on GLC chips by amine coupling, RGM proteins as analytes; 10 mM Hepes pH 7.4, 500 mM NaCl, 3.4 mM EDTA, 0.005% Tween20; 1:1 Langmuir kinetic fit, Kd = koff/kon; apparent Kd
Target sequence in this assay (P43026 382-501): as above

[5] = target: bone morphogenetic protein 2 (BMP2) (UniProt P12643); assay: as above
[6] = target: growth differentiation factor 5 (GDF5), wild type (UniProt P43026); assay: SPR; ProteOn XPR36; BMP2 (570 RU) or GDF5 (470 RU) amine-coupled to a GLC sensor chip; ActR2b ectodomain perfused at 6 µM to 187.5 nM, 100 µl/min; 0.005% (v/v) Tween 20 buffer; Kd from the dose-dependency of equilibrium binding, one-site model; apparent
Target sequence in this assay (P43026 28-501): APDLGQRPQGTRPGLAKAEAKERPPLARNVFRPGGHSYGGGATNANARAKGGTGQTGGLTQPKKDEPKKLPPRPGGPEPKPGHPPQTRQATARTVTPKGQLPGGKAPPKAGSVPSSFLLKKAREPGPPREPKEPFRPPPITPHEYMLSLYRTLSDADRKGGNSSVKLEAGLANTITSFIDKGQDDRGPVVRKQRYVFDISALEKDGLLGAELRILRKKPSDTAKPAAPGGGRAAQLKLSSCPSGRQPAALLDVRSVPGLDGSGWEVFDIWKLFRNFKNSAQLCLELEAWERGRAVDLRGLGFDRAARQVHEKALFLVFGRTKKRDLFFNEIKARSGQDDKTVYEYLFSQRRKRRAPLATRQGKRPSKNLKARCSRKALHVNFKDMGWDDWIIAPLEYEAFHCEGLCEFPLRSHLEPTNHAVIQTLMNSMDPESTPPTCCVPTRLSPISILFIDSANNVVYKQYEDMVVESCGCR

[7] = target: growth differentiation factor 5 (GDF5), wild type (UniProt P43026); assay: SPR; Biacore T200, 25 °C; GDF5 amine-coupled to a CM5 chip (830, 970 or 1370 RU); RGMBND variants or BSA as analytes; 0.5 M NaCl, 20 mM HEPES pH 7.4, 0.05% (v/v) Tween 20; Kd from the dose-dependency of equilibrium binding, 1:1 Langmuir isotherm
Target sequence in this assay (P43026 28-501): as above

[8] = target: bone morphogenetic protein 2 (BMP2) (UniProt P12643)
[9] = target: growth differentiation factor 5 (GDF5), wild type (UniProt P43026); assay: SPR; ProteOn XPR36; BMP2 (570 RU), GDF5 (470 RU), TGF-β2 (300 RU) or activin A (350 RU) amine-coupled to a GLC sensor chip; analyte perfused (RGMB 50 to 1.56 nM at 150 or 100 µl/min; BMPR1A 1000 to 31.25 nM at 100 µl/min); 20 mM HEPES pH 7.4, 500 mM NaCl, 3.4 mM EDTA, 0.005% (v/v) Tween 20; 25 °C; Langmuir 1:1 kinetic fit (parameters local for RGMB), Kd = koff/kon; apparent
Target sequence in this assay (P43026 28-501): as above

bone morphogenetic protein 2 (BMP2), sequence (P12643 283-396): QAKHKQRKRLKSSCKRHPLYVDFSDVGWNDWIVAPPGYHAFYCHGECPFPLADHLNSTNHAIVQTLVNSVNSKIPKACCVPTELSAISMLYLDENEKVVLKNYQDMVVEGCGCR
BMPR1A ectodomain protein (residues Gln24 to Arg152), sequence (P36894 24-152): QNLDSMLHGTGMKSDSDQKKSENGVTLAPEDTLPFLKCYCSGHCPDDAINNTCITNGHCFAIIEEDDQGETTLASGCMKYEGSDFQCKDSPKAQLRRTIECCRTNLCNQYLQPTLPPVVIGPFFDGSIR
murine activin type-2 receptor ActR2b, soluble ectodomain (residues Gly20 to Glu127), sequence (P27040 20-127): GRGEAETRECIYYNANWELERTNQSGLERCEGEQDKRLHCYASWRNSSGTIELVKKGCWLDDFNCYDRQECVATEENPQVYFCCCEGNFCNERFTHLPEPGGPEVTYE

Substance: soluble RGMA extracellular domain (RGMAECD) for the ProteOn SPR studies (from UniProt Q96B86 48-424) (domain or fragment)
GDF5 (30 nM) BMP-responsive luciferase reporter in LLC-PK1 cells expressing full-length membrane-anchored RGMA [1]: 2 fold

Substance: soluble RGMC extracellular domain (RGMCECD) for the ProteOn SPR studies (from UniProt Q6ZVN8 36-400) (domain or fragment)
GDF5 (30 nM) BMP-responsive luciferase reporter in LLC-PK1 cells expressing full-length membrane-anchored RGMC [1]: 2 fold

Substance: BMPR1A extracellular domain (BMPR1AECD, Thr55–Val141) (receptor)
Kd [2]: 59 nM
Kd [3]: 125 nM

Substance: extracellular domain of human RGMB (RGMBECD, Gln53–Ser411) (domain or fragment)
BMP2 (3 nM) BMP-responsive luciferase reporter in LLC-PK1 cells expressing full-length membrane-anchored RGMB [8]: 3 fold

Now from value to substance:

Kd [4]: 2.7 nM
Kd [5]: 4.2 nM
Substance: soluble RGMB extracellular domain (RGMBECD) for the ProteOn SPR studies (from UniProt Q6NW40 46-413) (domain or fragment)

Kd [6]: 1300 nM
Substance: murine activin type-2 receptor ActR2b, soluble ectodomain (residues Gly20 to Glu127) (from UniProt P27040 20-127)

Kd [7]: > 200000 nM
Substance: RGMBND His106Arg (domain or fragment)

koff [9]: 0.0048 s⁻¹
kon [9]: 90000 M⁻¹ s⁻¹
Substance: BMPR1A ectodomain protein (residues Gln24 to Arg152) (from UniProt P36894 24-152) (receptor)
